Measured values from paper PMC9352680, “A comprehensive thermodynamic model for RNA binding by the Saccharomyces cerevisiae Pumilio protein PUF4”.
Positions count from the first letter of the chain named. Names may count otherwise.

T1: PUF4 RNA-binding domain (Saccharomyces cerevisiae, UniProt P25339 537-888)
T1 sequence: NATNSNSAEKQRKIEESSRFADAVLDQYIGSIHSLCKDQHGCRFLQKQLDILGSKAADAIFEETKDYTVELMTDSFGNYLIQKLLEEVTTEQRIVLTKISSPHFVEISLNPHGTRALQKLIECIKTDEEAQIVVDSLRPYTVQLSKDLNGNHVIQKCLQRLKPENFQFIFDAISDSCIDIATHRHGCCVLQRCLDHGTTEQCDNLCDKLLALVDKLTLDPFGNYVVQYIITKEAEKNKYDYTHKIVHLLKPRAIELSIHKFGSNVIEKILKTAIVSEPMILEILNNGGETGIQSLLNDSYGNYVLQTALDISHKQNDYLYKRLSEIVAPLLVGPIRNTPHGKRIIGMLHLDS

B1: Ib_S1_P5E.1_K5.1_C5.1_H5.1_[G2T]_A5.1_[T5G]_F5.1_T5.1 (ssRNA)
RNA: UCUCUUUUUAGUAUUAUCUCUU
B2: Ib_S1_P5E.1_K5.1_C5.1_H5.1_[G2A]_A5.1_[T5C]_F5.1_T5.1 (ssRNA)
RNA: UCUCUUUAUACUAUUAUCUCUU
B3: Ia_S1_P5E.1_K5.1_C5.1_H5.1_A5.1_[T6C]_F5.1_T5.1 (ssRNA)
RNA: UCUCUUUGUAUCAUUAUCUCUU
B4: Ib_S1_P5E.1_K5.1_C5.1_H5.1_[G2C]_A5.1_[T5A]_F5.1_T5.1 (ssRNA)
RNA: UCUCUUUCUAAUAUUAUCUCUU
B5: Id_ii_S4_P3E.4_K3.3_C3.2_[C-2G]_H3.3_A3.1_F3.1_T3.2_[A10T] (ssRNA)
RNA: UUUGACAACUGAUCGUUCUUUCUGUACACUAUAUUUUCUUUCUCGAUCAGUUGUCUUU
B6: Id_ii_S4_P3E.4_K3.3_C3.2_[C-2T]_H3.3_A3.1_F3.1_T3.2_[A10T] (ssRNA)
RNA: B5 RNA with G24U
B7: Id_ii_S4_P3E.4_K3.3_C3.2_[C-2A]_H3.3_A3.1_F3.1_T3.2_[A10T] (ssRNA)
RNA: B5 RNA with G24A
B8: Id_ii_S4_P3E.4_K3.3_C3.2_[C-2T]_[T-1A]_H3.3_A3.1_F3.1_T3.2 (ssRNA)
RNA: B5 RNA with G24U, U25A, U35A
B9: Id_ii_S4_P3E.4_K3.3_C3.2_[C-2T]_H3.3_A3.1_F3.1_T3.2 (ssRNA)
RNA: B5 RNA with G24U, U35A
B10: Id_ii_S4_P3E.4_K3.3_C3.2_[C-2A]_[T-1A]_H3.3_A3.1_F3.1_T3.2_[T9C] (ssRNA)
RNA: B5 RNA with G24A, U25A, U34C, U35A
B11: Id_ii_S4_P3E.4_K3.3_C3.2_[C-2T]_[T-1A]_H3.3_A3.1_F3.1_T3.2_[A10T] (ssRNA)
RNA: B5 RNA with G24U, U25A
B12: Ib_S1_P5E.1_K5.1_C5.1_H5.1_[G2A]_A5.1_[T5G]_F5.1_T5.1 (ssRNA)
RNA: UCUCUUUAUAGUAUUAUCUCUU
B13: Ib_S1_P5E.1_K5.1_C5.1_H5.1_[G2C]_A5.1_[T5C]_F5.1_T5.1 (ssRNA)
RNA: UCUCUUUCUACUAUUAUCUCUU
B14: Id_ii_S4_P3E.3_K3.2_C3.2_[T-1C]_H3.2_A3.1_F3.1_T3.2_[T9A]_[A10C] (ssRNA)
RNA: UUUGACAACUGAUCGUUCUUUCUCCUAUAUAUAACUUCUUUCUCGAUCAGUUGUCUUU
B15: Id_ii_S4_P3E.3_K3.2_C3.2_H3.2_A3.1_F3.1_T3.2 (ssRNA)
RNA: B14 RNA with C25U, A34U, C35A
B16: Id_ii_S4_P3E.4_K3.3_C3.2_[T-1A]_H3.3_A3.1_F3.1_T3.2_[T9C]_[A10C] (ssRNA)
RNA: B5 RNA with G24C, U25A, U34C, U35C
B17: Id_ii_S4_P3E.4_K3.3_C3.2_[T-1C]_H3.3_A3.1_F3.1_T3.2_[A10T] (ssRNA)
RNA: B5 RNA with G24C, U25C
B18: Id_ii_S4_P3E.4_K3.3_C3.2_H3.3_A3.1_F3.1_T3.2_[T9C]_[A10T] (ssRNA)
RNA: B5 RNA with G24C, U34C
B19: Id_ii_S4_P3E.3_K3.2_C3.2_H3.2_A3.1_F3.1_T3.2_[A10C] (ssRNA)
RNA: B14 RNA with C25U, A34U
B20: Id_ii_S4_P3E.4_K3.3_C3.2_[T-1G]_H3.3_A3.1_F3.1_T3.2_[T9C] (ssRNA)
RNA: B5 RNA with G24C, U25G, U34C, U35A
B21: Id_ii_S4_P3E.4_K3.3_C3.2_[T-1C]_H3.3_A3.1_F3.1_T3.2_[T9G]_[A10C] (ssRNA)
RNA: B5 RNA with G24C, U25C, U34G, U35C
B22: Id_ii_S4_P3E.3_K3.2_C3.2_[T-1A]_H3.2_A3.1_F3.1_T3.2_[T9A] (ssRNA)
RNA: B14 RNA with C25A, C35A
B23: Id_ii_S4_P3E.4_K3.3_C3.2_[C-2A]_H3.3_A3.1_F3.1_T3.2_[T9A]_[A10C] (ssRNA)
RNA: B5 RNA with G24A, U34A, U35C
B24: Id_ii_S4_P3E.4_K3.3_C3.2_[C-2G]_H3.3_A3.1_F3.1_T3.2_[T9A]_[A10T] (ssRNA)
RNA: B5 RNA with U34A
B25: Id_ii_S4_P3E.4_K3.3_C3.2_[C-2G]_[T-1C]_H3.3_A3.1_F3.1_T3.2_[T9C] (ssRNA)
RNA: B5 RNA with U25C, U34C, U35A
B26: Id_ii_S4_P3E.3_K3.2_C3.2_[T-1C]_H3.2_A3.1_F3.1_T3.2_[A10G] (ssRNA)
RNA: B14 RNA with A34U, C35G
B27: Id_ii_S4_P3E.4_K3.3_C3.2_[C-2T]_[T-1C]_H3.3_A3.1_F3.1_T3.2_[T9C]_[A10G] (ssRNA)
RNA: B5 RNA with G24U, U25C, U34C, U35G
B28: Id_ii_S4_P3E.4_K3.3_C3.2_[C-2G]_[T-1C]_H3.3_A3.1_F3.1_T3.2_[T9G]_[A10T] (ssRNA)
RNA: B5 RNA with U25C, U34G
B29: Id_ii_S4_P3E.4_K3.3_C3.2_[T-1G]_H3.3_A3.1_F3.1_T3.2_[T9C]_[A10T] (ssRNA)
RNA: B5 RNA with G24C, U25G, U34C
B30: Id_ii_S4_P3E.3_K3.2_C3.2_[T-1A]_H3.2_A3.1_F3.1_T3.2_[T9G]_[A10C] (ssRNA)
RNA: B14 RNA with C25A, A34G
B31: Id_ii_S4_P3E.3_K3.2_C3.2_H3.2_A3.1_F3.1_T3.2_[T9A]_[A10C] (ssRNA)
RNA: B14 RNA with C25U
B32: Id_ii_S4_P3E.4_K3.3_C3.2_[C-2A]_[T-1C]_H3.3_A3.1_F3.1_T3.2_[T9G]_[A10C] (ssRNA)
RNA: B5 RNA with G24A, U25C, U34G, U35C
B33: Id_ii_S4_P3E.4_K3.3_C3.2_[C-2A]_[T-1C]_H3.3_A3.1_F3.1_T3.2_[A10T] (ssRNA)
RNA: B5 RNA with G24A, U25C
B34: Id_ii_S4_P3E.3_K3.2_C3.2_[T-1C]_H3.2_A3.1_F3.1_T3.2_[A10T] (ssRNA)
RNA: B14 RNA with A34U, C35U
B35: Id_ii_S4_P3E.4_K3.3_C3.2_[T-1G]_H3.3_A3.1_F3.1_T3.2_[T9A] (ssRNA)
RNA: B5 RNA with G24C, U25G, U34A, U35A
B36: Id_ii_S4_P3E.4_K3.3_C3.2_[C-2G]_[T-1C]_H3.3_A3.1_F3.1_T3.2_[T9A]_[A10T] (ssRNA)
RNA: B5 RNA with U25C, U34A
B37: Id_ii_S4_P3E.4_K3.3_C3.2_[C-2T]_H3.3_A3.1_F3.1_T3.2_[T9G]_[A10C] (ssRNA)
RNA: B5 RNA with G24U, U34G, U35C
B38: Id_ii_S4_P3E.3_K3.2_C3.2_H3.2_A3.1_F3.1_T3.2_[A10T] (ssRNA)
RNA: B14 RNA with C25U, A34U, C35U
B39: Id_ii_S4_P3E.4_K3.3_C3.2_[T-1A]_H3.3_A3.1_F3.1_T3.2 (ssRNA)
RNA: B5 RNA with G24C, U25A, U35A
B40: Id_ii_S4_P3E.4_K3.3_C3.2_[C-2G]_[T-1C]_H3.3_A3.1_F3.1_T3.2_[T9C]_[A10C] (ssRNA)
RNA: B5 RNA with U25C, U34C, U35C
B41: Id_ii_S4_P3E.4_K3.3_C3.2_[C-2T]_[T-1A]_H3.3_A3.1_F3.1_T3.2_[T9A]_[A10T] (ssRNA)
RNA: B5 RNA with G24U, U25A, U34A
B42: Id_ii_S4_P3E.3_K3.2_C3.2_H3.2_A3.1_F3.1_T3.2_[T9C]_[A10C] (ssRNA)
RNA: B14 RNA with C25U, A34C
B43: Id_ii_S4_P3E.4_K3.3_C3.2_[C-2T]_[T-1C]_H3.3_A3.1_F3.1_T3.2_[A10T] (ssRNA)
RNA: B5 RNA with G24U, U25C
B44: Id_ii_S4_P3E.4_K3.3_C3.2_[C-2A]_[T-1A]_H3.3_A3.1_F3.1_T3.2_[A10C] (ssRNA)
RNA: B5 RNA with G24A, U25A, U35C
B45: Id_ii_S4_P3E.4_K3.3_C3.2_[C-2A]_[T-1C]_H3.3_A3.1_F3.1_T3.2_[T9A]_[A10C] (ssRNA)
RNA: B5 RNA with G24A, U25C, U34A, U35C
B46: Id_ii_S4_P3E.4_K3.3_C3.2_[C-2T]_[T-1A]_H3.3_A3.1_F3.1_T3.2_[A10C] (ssRNA)
RNA: B5 RNA with G24U, U25A, U35C
B47: Id_ii_S4_P3E.4_K3.3_C3.2_[C-2T]_[T-1C]_H3.3_A3.1_F3.1_T3.2_[A10C] (ssRNA)
RNA: B5 RNA with G24U, U25C, U35C
B48: Id_ii_S4_P3E.4_K3.3_C3.2_[C-2G]_H3.3_A3.1_F3.1_T3.2_[T9C]_[A10C] (ssRNA)
RNA: B5 RNA with U34C, U35C
B49: Id_ii_S4_P3E.3_K3.2_C3.2_H3.2_A3.1_F3.1_T3.2_[A10G] (ssRNA)
RNA: B14 RNA with C25U, A34U, C35G
B50: Id_ii_S4_P3E.4_K3.3_C3.2_[C-2T]_H3.3_A3.1_F3.1_T3.2_[T9A]_[A10C] (ssRNA)
RNA: B5 RNA with G24U, U34A, U35C
B51: Id_ii_S4_P3E.4_K3.3_C3.2_[C-2A]_H3.3_A3.1_F3.1_T3.2_[A10C] (ssRNA)
RNA: B5 RNA with G24A, U35C
B52: Id_ii_S4_P3E.4_K3.3_C3.2_[C-2T]_H3.3_A3.1_F3.1_T3.2_[T9A] (ssRNA)
RNA: B5 RNA with G24U, U34A, U35A
B53: Id_ii_S4_P3E.3_K3.2_C3.2_H3.2_A3.1_F3.1_T3.2_[T9G]_[A10C] (ssRNA)
RNA: B14 RNA with C25U, A34G

Biological target: T1, PUF4 RNA-binding domain
Test: Mg; RNA-MaP; 20 mM Na-HEPES pH 7.4, 30 mM KOAc, 0.75 mM MgCl2, 0.1% Tween-20, 5% glycerol, 0.1 mg/mL BSA, 2 mM DTT; 25 C; 0.0125-409.6 nM protein
Conditions: tags: N-His6-TEV cleaved; C-SNAP kept, Cy3B-labelled; label: tethered on chip by stalled RNA polymerase

Binder	Kd [nM]
B1	> 2300
B2	330
B3	6.62
B4	> 2300
B5	0.57
B6	946
B7	49.3
B8	264
B9	345
B10	496
B11	1310
B12	1360
B13	> 2300
B14	467
B15	68.6
B16	2160
B17	1050
B18	1380
B19	104
B20	637
B21	> 2300
B22	842
B23	26.4
B24	0.68
B25	115
B26	126
B27	> 2300

Binder	Kd [nM]
B28	593
B29	> 2300
B30	243
B31	176
B32	> 2300
B33	1140
B34	37.4
B35	> 2300
B36	60.5
B37	1230
B38	56.4
B39	291
B40	50.2
B41	> 2300
B42	190
B43	1430
B44	1020
B45	1370
B46	1540
B47	> 2300
B48	1.46
B49	276
B50	935
B51	41.8
B52	2300
B53	567
